Measurements from article PMC5922973, “Topoisomerase VI senses and exploits both DNA crossings and bends to facilitate strand passage” (eLife, 2018).

Molecular target: the molecule itself
Experiment: SEC; topo VI co-expressed in E. coli and co-purified through His6-Top6B (Ni2+, SP/Q, TEV, Ni2+), then Sephacryl-300 HR gel filtration in 20 mM HEPES-KOH pH 7.5, 300 mM KCl, 10% glycerol; heterotetramer peak

B1: Methanosarcina mazei topoisomerase VI subunit A (Top6A) (enzyme)
chain: MEGEKGSKTRKGDALAREKLLEIAEKIYNQFEEEVVPSVSLPSRTKANLEYSDESDVWVYGDRESERSAKTVKGAFQLLKTTYATDFLINEHLARNRGSTLRELYYISEGWDYAKFKEQGESDRLIEDLEILTSLQREYFHMRPEEDGATMFGPIEITEQTKRGERNIHCQKDVGEGGYQIPFNVENIEFQKHDASMIIAIETGGMYARLMENGFDEAYNAILVHLKGQPARSTRRIIKRMNEELGIPVAVFTDGDPWSYRIYASVAYGAIKSAHLSEFMATPAAKFLGLQPSDIVEYELSTDKLTEQDVSALRSELSDPRFESDYWKEQIQLQLDIGKKAEQQAFAGKGLDFVTEVYLPNRLKEMGMI
notes: Top6A of Methanosarcina mazei topo VI; the Top6A gene cloned into a polycistronic expression vector (Corbett et al., 2007); Two Top6A and two Top6B form the A2B2 heterotetramer; also called MmTop6A; A subunit of topo VI
binding result: binds
